According to PMC9378563:

Legend:
[1] = biological target: L21A variant of HIV-1 gp41 Core (Core^L21A) (HIV-1 (HXB2 numbering named)); assay: SEC-MALS
[2] = biological target: L21A variant of HIV-1 gp41 Core (Core^L21A) (HIV-1 (HXB2 numbering named)); assay: NMR, 1H-15N HSQC resonance amplitudes of trimer and monomer
[3] = biological target: L21A variant of HIV-1 gp41 Core (Core^L21A) (HIV-1 (HXB2 numbering named)); assay: NMR, 15N ZZ exchange

“L21A variant of HIV-1 gp41 Core (Core^L21A) (domain or fragment)” showed a stoichiometry N [1] of 3, a Kd = [M]^3/([T][B]^2) (6HB trimer + 2 bicelles to 3 lipid-bound monomers) [2] of 2.8 and a population of the lipid-bound (monomeric) state [2] of 71%. For the same substance, the kex (koff[B]^2 + 3kon[M]^2) [3] was 1.05 s⁻¹.
